Laboratory results taken from patent US6995018B1, “Complex formed by N-linked glycoproteins (SIBLINGS)and Factor H” (The United States of America as represented by the …, priority 1999, dated 2006).
Entries after “also recorded” stand apart in the source; their conditions may differ.

B1: DMP1: dentin matrix protein, SIBLINGS family member; recombinant from adenoviral construct (protein)
chain: LPVTRYQNNESEDSEEWKGHLAQAPTPPLESSESSEGSKVSSEEQANEDPSDSTQSEEGLGSDDHQYIYRLAGGFSRSTGKGGDDKDDDEDDSGDDTFGDDDSGPGPKDRQEGGNSRLGSDEDSDDTIQASEESAPQGQDSAQDTTSESRELDNEDRVDSKPEGGDSTQESESEEHWVGGGSDGESSHGDGSELDDEGMQSDDPESIRSERGNSRMNSAGMKSKESGENSEQANTQDSGGSQLLEHPSRKIFRKSRISEEDDRSELDDNNTMEEVKSDSTENSNSRDTGLSQPRRDSKGDSQEDSKENLSQEESQNVDGPSSESSQEANLSSQENSSESQEEVVSESRGDNPDPTTSYVEDQEDSDSSEEDSSHTLSHSKSESREEQADSESSESLNFSEESPESPEDENSSSQEGLQSHSSSAESQSEESHSEEDDSDSQDSSRSKEDSNSTESKSSSEEDGQLKNIEIESRKLTVDAYHNKPIGDQDDNDCQDGY
B2: BSP: Bone sialoprotein, phosphorylated and sulfated integrin-binding glycoprotein, SIBLINGS family; recombinant form from adenovirus-infected human marrow stromal fibroblasts (protein)
chain: FSMKNLHRRVKIEDSEENGVFKYRPRYYLYKHAYFYPHLKRFPVQGSSDSSEENGDDSSEEEEEEEETSNEGENNEESNEDEDSEAENTTLSATTLGYGEDATPGTGYTGLAAIQLPKKAGDITNKATKEKESDEEEEEEEEGNENEESEAEVDENEQGINGTSTNSTEAENGNGSSGGDNGEEGEEESVTGANAEGTTETGGQGKGTSKTTTSPNGGFEPTTPPQVYRTTSPPFGKTTTVEYEGEYEYTGVNEYDNGYEIYESENGEPRGDNYRAYEDEYSYFKGQGYDGYDGQNYYHHQ

Assays:
[1] = tested on: Murine erythroleukemia (MEL) cells; assay: Alternate complement mediated cell lysis assay, MEL cells with normal human serum; type: cell-based; settings: for protection of MEL cells from complement-mediated lysis (cell viability): 10 μg/mL protein 10 min, normal human serum 1:10, 2 h, trypan blue and MTT
Procedure: MEL cells were rinsed three times with GVB-MgEGTA buffer, resuspended in GVB-MgEGTA at a density of 5×10^6 cells/mL, and incubated at 37° C. with different concentrations of normal human serum. After 2 hrs, cells were harvested for trypan blue exclusion assay. The thiazolium blue assay was carried out at identical serum dilutions and cell viability was determined by absorbance at 560 nm. Each data point represents the average of three measurements. The error bars represent the standard deviation of the mean (A). MEL cells in GVB-MgEGTA buffer were incubated with 10 μg/mL of either rBSP or rOPN for 10 minutes at 37° C. Normal human serum was then added at a dilution of 1:10 and the cells were returned to 37° C., incubated for 2 hours and cell viability was determined by trypan blue and thiazolyl blue (MTT) reduction assays (B). Data from 3–7 separate experiments, with treatment replicates in triplicate, was combined to yield mean values. Error bars represent the standard error of the mean. N=number of experiments combined.
MEL cells prepared as in FIG. 8 were treated with normal rBSP (10 μg/mL), rBSP whose RGD sequence had been mutated to KAE ([…]), and either GRGDS (SEQ ID NO: 10) peptide (400 μM) followed by rBSP or an αVβ3 antibody (1:4000) followed by rBSP for 10 minutes prior to the addition of normal human serum. The cells were then incubated for […] after which cell viability determined using the MTT assay (A). A cohort of MEL cells were pretreated with rOPN (10 μg/mL) alone, GRGDS (SEQ ID NO: 10) peptide followed by rOPN, the αVβ3 antibody followed by rOPN, or an anti-CD44 antibody (Chemicon, Co.) followed by rOPN, or hyaluronan (HA) followed by rOPN (B). Cells were then treated with normal human serum and viability assayed as in FIG. 8. […] The data represents the mean and standard error of the mean for three separate experiments. Statistical significance was determined by analysis of variance. Percent cell viability was determined using A560 absorbance values of various conditions and a control where no serum had been added (100% viable). The cross-hatched region represents that range of values observed when normal human serum (1:10) alone was added (maximal cell death).
The first model system employed was a murine erythroleukemia (MEL) cell line which when incubated with normal human serum can be readily assayed for alternate complement pathway (ACP)-mediated cell lysis (Varnet et al., Curr. Opin. Cell Biol., 8(5):724–730, 1996). Cell survival was measured by both trypan blue dye exclusion and by thiazolyl blue (MTT) reduction by living mitochondria. Titration with dilutions of normal human serum and time courses were carried out to define optimal incubation conditions. At 1:10 dilution, human serum totally lysed the MEL cells as measured by both assay systems (FIG. 8A).
Murine erytliroleukemia (MEL) cells (a gift of Dr. Marilyn Farquhar, Univ. CA San Diego.) grown in DMEM containing 10% fetal bovine serum and 4 mM glutamine were rinsed three times with gelatin veronal buffer with Mg2^+ and EGTA (GVB-MgEGTA, Sigma, St. Louis, Mo.). Cells were resuspended in GVB-MgEGTA at a density of 5×10^6 cells/mL and incubated at 37° C. with different concentrations of normal human serum diluted in GVB-MgEGTA. […] Cell viability was determined spectrophotometrically by absorbance at 560 nm. […]

[2] = biological target: T1, purified human complement Factor H (Homo sapiens, UniProt P08603); assay: Steady state fluorescence titration of Factor H with SIBLINGS proteins; type: binding; settings: fluorescence quenching at 347 nm, excitation 295 nm
T1 construct: purchased Quidel Corporation (San Diego, Calif.)
T1 sequence (P08603 19-1231): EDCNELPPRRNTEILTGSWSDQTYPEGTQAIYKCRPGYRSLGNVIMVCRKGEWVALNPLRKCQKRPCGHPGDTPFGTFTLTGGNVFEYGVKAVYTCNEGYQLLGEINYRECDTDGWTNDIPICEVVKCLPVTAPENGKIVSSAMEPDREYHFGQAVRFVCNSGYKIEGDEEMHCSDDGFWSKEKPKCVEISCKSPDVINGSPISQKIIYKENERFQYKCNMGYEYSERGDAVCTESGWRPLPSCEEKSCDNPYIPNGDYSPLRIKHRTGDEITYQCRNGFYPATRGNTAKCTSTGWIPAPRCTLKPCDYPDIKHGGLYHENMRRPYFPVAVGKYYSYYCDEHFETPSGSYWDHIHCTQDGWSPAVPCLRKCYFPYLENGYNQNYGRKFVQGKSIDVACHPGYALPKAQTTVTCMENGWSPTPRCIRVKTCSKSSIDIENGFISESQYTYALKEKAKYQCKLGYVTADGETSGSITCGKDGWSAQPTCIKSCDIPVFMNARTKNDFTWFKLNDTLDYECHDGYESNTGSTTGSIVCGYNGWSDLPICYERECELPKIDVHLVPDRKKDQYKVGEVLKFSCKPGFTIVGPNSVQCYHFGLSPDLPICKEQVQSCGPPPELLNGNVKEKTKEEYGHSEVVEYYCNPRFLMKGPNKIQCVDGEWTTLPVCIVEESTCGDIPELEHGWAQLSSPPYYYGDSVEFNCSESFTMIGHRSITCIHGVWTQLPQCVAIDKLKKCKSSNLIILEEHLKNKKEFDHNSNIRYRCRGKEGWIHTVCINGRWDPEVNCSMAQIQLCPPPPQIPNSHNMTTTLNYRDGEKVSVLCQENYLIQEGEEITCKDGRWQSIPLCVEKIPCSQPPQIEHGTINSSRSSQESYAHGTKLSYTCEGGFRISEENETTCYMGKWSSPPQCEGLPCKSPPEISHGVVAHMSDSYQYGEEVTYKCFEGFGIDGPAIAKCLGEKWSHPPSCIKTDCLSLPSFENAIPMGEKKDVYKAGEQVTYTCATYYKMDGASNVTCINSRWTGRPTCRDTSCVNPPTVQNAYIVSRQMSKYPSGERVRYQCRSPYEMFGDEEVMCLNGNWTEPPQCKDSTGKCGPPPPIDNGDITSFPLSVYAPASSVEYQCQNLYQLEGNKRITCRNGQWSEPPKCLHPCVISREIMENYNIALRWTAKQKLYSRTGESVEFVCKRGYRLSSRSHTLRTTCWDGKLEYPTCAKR
Description: FIGS. 3A and 3B are graphs which show the result of a titration of Factor H with BSP.
The salient structural features of Factor H include 20 short consensus repeats (SCRs) that contain four cysteine residues forming two disulfide bonds per repeat. In addition, each SCR contains one conserved tryptophan residue per repeat and Factor H is known to interact with several sialic acid-containing proteins. Therefore, binding interactions between members of the SIBLINGS family of proteins and Factor H can be studied by steady state fluorescence.
Steady state fluorescence studies were accomplished by titrating purified human complement Factor H with rBSP, rOPN, and rDMP1 followed by excitation at 295 nm and monitoring emission between 300 and 450 nm. The emission profile of Factor H alone yields a peak at 347 nm. The addition of rBSP, rOPN, or rDMP1 in nm increments causes a relative fluorescent intensity quenching. Conversion of the fluorescent intensity titration into a binding curve by determining the fraction of binding sites occupied as the fractional change in fluorescence quenching at 347 nm yields a saturable binding curve. […] Given that normal serum concentration of Factor H is ^˜0.5 mg/mL it is probable that virtually all BSP, OPN, and DMP1 in serum will be complexed with Factor H.

U-266 myeloma cells = assay: Alternate complement pathway cell lysis assay with guinea pig serum, U-266; type: cell-based, human; settings: U-266, 10 μg/mL, guinea pig serum 1:5, trypan blue and MTT
Procedure: (§1) Human cancer cell lines, MCF-7 (A) and U-266 (B) cells were rinsed three time with GVB-MgEGTA buffer and subsequently treated exactly as in the MEL cell complement-mediated cell lysis assay described above except complement active guinea pig serum (GPS) was substituted for human serum. Three different dilutions of GPS were assayed. For cultures pretreated with 10 μg/mL BSP or OPN, the dilution of GPS used was 1:5. Cell viability was determined by both trypan blue exclusion (solid bar) and MTT (open bar) assay. The bars represent the mean values of triplicate samples and the error bars are the standard deviation values.
(§2) Murine erytliroleukemia (MEL) cells (a gift of Dr. Marilyn Farquhar, Univ. CA San Diego.) grown in DMEM containing 10% fetal bovine serum and 4 mM glutamine were rinsed three times with gelatin veronal buffer with Mg2^+ and EGTA (GVB-MgEGTA, Sigma, St. Louis, Mo.). Cells were resuspended in GVB-MgEGTA at a density of 5×10^6 cells/mL and incubated at 37° C. with different concentrations of normal human serum diluted in GVB-MgEGTA. […] Cell viability was determined spectrophotometrically by absorbance at 560 nm. […] Normal human serum collected for good complement activity was then added at a dilution of 1:10 and the cells returned to 37° C. for 2 hours and cell viability was determined by trypan blue-exclusion and MTT assays. […]

[3] = tested on: MCF-7 breast cancer cells; assay: Alternate complement pathway cell lysis assay with guinea pig serum, MCF-7; type: cell-based, human; settings: MCF-7, 10 μg/mL, guinea pig serum 1:5, trypan blue and MTT
Procedure: as §1, §2

Molecule	dose relation of protection of MEL cells from alternate complement pathway-mediated lysis [1]	protection of MEL cells from complement-mediated lysis (cell viability) [1]	binding constant with Factor H [2]	survival and protection from complement-mediated cell lysis (U-266 myeloma cells)	protection of MEL cells from complement-mediated lysis (cell viability) ([1]; listed as recombinant BSP)	survival and protection from complement-mediated cell lysis [3]
B1	dose related responses	conferred protection; also recorded: protect the cells	in the nM range			
B2	dose related responses	protect	in the nM range	enhanced survival and protection	completely protected	enhanced survival and protection
